Data taken from patent US10766960 (dated 2020).
Changes are numbered by the printed parent chain. One block for each binder: values may come before it.

Tests used:
Experiment in all cases: SPR
[1] = target: T1, FcgRIIa R (human, UniProt P12318)
T1 chain: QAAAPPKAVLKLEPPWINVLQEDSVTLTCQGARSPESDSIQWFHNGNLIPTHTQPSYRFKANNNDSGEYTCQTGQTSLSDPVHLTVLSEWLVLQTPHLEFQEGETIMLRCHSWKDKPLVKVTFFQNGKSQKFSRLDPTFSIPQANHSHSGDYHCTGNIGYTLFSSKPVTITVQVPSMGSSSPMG

[2] = target: FcgRIIIa F (human, UniProt P08637)
[3] = target: FcgRIIIa V (human, UniProt P08637)
Sequence of FcgRIIIa V (P08637 17-208 F176V): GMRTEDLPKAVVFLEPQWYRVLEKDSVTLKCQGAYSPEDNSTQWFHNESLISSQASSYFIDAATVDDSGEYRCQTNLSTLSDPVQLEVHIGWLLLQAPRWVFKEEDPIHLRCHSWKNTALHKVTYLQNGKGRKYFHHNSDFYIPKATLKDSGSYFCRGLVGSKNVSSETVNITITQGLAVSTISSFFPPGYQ

[4] = target: T2, FcgRIIa H (human, UniProt P12318)
T2 chain: T1 chain with R134H

[5] = target: T3, FcgRIIb (human, UniProt P31994)
T3 chain: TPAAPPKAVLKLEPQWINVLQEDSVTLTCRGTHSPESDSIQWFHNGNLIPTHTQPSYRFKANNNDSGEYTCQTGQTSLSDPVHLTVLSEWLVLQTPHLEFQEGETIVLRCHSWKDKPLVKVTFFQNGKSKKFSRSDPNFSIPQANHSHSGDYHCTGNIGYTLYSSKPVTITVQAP

[6] = target: T4, FcgRIa (human, UniProt P12314)
T4 chain: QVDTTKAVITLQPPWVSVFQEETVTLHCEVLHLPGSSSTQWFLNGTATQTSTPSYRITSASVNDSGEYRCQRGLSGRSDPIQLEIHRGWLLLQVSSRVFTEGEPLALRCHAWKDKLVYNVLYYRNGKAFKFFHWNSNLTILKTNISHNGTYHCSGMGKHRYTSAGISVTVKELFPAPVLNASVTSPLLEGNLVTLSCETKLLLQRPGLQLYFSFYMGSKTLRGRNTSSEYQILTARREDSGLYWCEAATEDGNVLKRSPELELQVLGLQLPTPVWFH

Sequence of FcgRIIIa F (P08637 17-208): as the sequence (P08637 17-208 F176V) above, with V160F counted along it

- Kd [1]: 790 nM
- Kd [2]: 2.4 nM
- Kd [3]: 0.59 nM
- Kd [4]: 230 nM
- Kd [5]: 6200 nM
- Kd [6]: 0.088 nM
B1: H240-Kn200/H240-Hl076/L73-k0 (antibody)
chain 1: QDQLVQSGAEVKKPGASVKVSCKASGFNIKDTYIQWVRQAPGQGLEWMGRIDPLRKQTKYREKFEGRVTITADTSTNTAYMELSSLRSEDTAVYYCVRSGREFDYWGQGTLVTVSSASTKGPSVFPLAPSSKSTSGGTAALGCLVKDYFPEPVTVSWNSGALTSGVHTFPAVLQSSGLYSLSSVVTVPSSSLGTQTYICNVNHKPSNTKVDKKVEPKSCDKTHTCPPCPAPESQWGPMVFLFPPKPKDTLMISRTPEVTCVVVDVSDEEPEVKFNWYVDGVEVHNAKTKPREEQYNATYRVVSVLTVLHQDWLNGKEYKCKVSNKALPAPIEKTISKAKGQPREPQVCTLPPSRDELTKNQVSLWCLVKGFYPSDIAVEWESNGQPENNYKTTPPVLDSDGSFFLYSKLTVDKSRWQQGNVFSCSVMHEALHNHYTQKSLSLSP
chain 2: QDQLVQSGAEVKKPGASVKVSCKASGFNIKDTYIQWVRQAPGQGLEWMGRIDPLRKQTKYREKFEGRVTITADTSTNTAYMELSSLRSEDTAVYYCVRSGREFDYWGQGTLVTVSSASTKGPSVFPLAPSSKSTSGGTAALGCLVKDYFPEPVTVSWNSGALTSGVHTFPAVLQSSGLYSLSSVVTVPSSSLGTQTYICNVNHKPSNTKVDKKVEPKSCDKTHTCPPCPAPELLGGPSVFLFPPKPKDTLMISRTPEVTCVVVDVSHEEPEVKFNWYVDGVEVHNAKTKPREEQYNSTYRVVSVLTVLHQDWLNGKEYKCKVSNDALPMPIEETISKAKGQPREPQVYTLPPSRCELTKNQVSLSCAVKGFYPSDIAVEWESNGQPENNYKTTPPVLDSDGSFFLVSKLTVDKSRWQQGNVFSCSVMHEALHNHYTQKSLSLSP
chain 3: DIQMTQSPSSLSASVGDRVTITCRASQDIHKYIAWYQQKPGQAPRLLIQYTSTLQPGVPSRFSGSGSGTDYTFTISSLQPEDIATYYCLQYEQLRTFGGGTKVEIKRTVAAPSVFIFPPSDEQLKSGTASVVCLLNNFYPREAKVQWKVDNALQSGNSQESVTEQDSKDSTYSLSSTLTLSKADYEKHKVYACEVTHQGLSSPVTKSFNRGEC

- Kd [1]: 1000 nM
- Kd [2]: 2.6 nM
- Kd [3]: 0.68 nM
- Kd [4]: 250 nM
- Kd [5]: 6100 nM
- Kd [6]: 0.089 nM
B2: H240-Kn215/H240-Hl076/L73-k0 (antibody)
chain 1: B1 chain 1 with S233H
chain 2: B1 chain 2
chain 3: B1 chain 3

- Kd [1]: 680 nM
- Kd [2]: 1.9 nM
- Kd [3]: 0.49 nM
- Kd [4]: 170 nM
- Kd [5]: 5200 nM
- Kd [6]: 0.085 nM
B3: H240-Kn207/H240-Hl076/L73-k0 (antibody)
chain 1: B1 chain 1 with S233V
chain 2: B1 chain 2
chain 3: B1 chain 3

- Kd [1]: 720 nM
- Kd [2]: 1.8 nM
- Kd [3]: 0.36 nM
- Kd [4]: 140 nM
- Kd [5]: 5400 nM
- Kd [6]: 0.058 nM
B4: H240-Kn201/H240-Hl076/L73-k0 (antibody)
chain 1: B1 chain 1 with S233F
chain 2: B1 chain 2
chain 3: B1 chain 3

- Kd [1]: 23 nM
- Kd [2]: 3.2 nM
- Kd [3]: 0.52 nM
- Kd [4]: 48 nM
- Kd [5]: 150 nM
- Kd [6]: 0.16 nM
B5: H240-Kn189/H240-Hl068/L73-k0 (antibody)
chain 1: B1 chain 1 with Q234Y, E269D, A326D
chain 2: B1 chain 2 with M329K
chain 3: B1 chain 3

- Kd [1]: 62 nM
- Kd [2]: 4.2 nM
- Kd [3]: 0.57 nM
- Kd [4]: 94 nM
- Kd [5]: 280 nM
- Kd [6]: 0.13 nM
B6: H240-Kn223/H240-Hl068/L73-k0 (antibody)
chain 1: B1 chain 1 with S233G, Q234Y, E269D, A326D
chain 2: B1 chain 2 with M329K
chain 3: B1 chain 3

- Kd [1]: 550 nM
- Kd [2]: 1.9 nM
- Kd [3]: 0.52 nM
- Kd [4]: 200 nM
- Kd [5]: 4200 nM
- Kd [6]: 0.084 nM
B7: H240-Kn211/H240-Hl076/L73-k0 (antibody)
chain 1: B1 chain 1 with S233M
chain 2: B1 chain 2
chain 3: B1 chain 3

- Kd [1]: 14 nM
- Kd [2]: 2.7 nM
- Kd [3]: 0.49 nM
- Kd [4]: 20 nM
- Kd [5]: 90 nM
- Kd [6]: 0.15 nM
B8: H240-Kn219/H240-Hl068/L73-k0 (antibody)
chain 1: B1 chain 1 with S233I, Q234Y, E269D, A326D
chain 2: B1 chain 2 with M329K
chain 3: B1 chain 3

- Kd [1]: 54 nM
- Kd [2]: 4 nM
- Kd [3]: 0.53 nM
- Kd [4]: 57 nM
- Kd [5]: 360 nM
- Kd [6]: 0.14 nM
B9: H240-Kn224/H240-Hl068/L73-k0 (antibody)
chain 1: B1 chain 1 with S233H, Q234Y, E269D, A326D
chain 2: B1 chain 2 with M329K
chain 3: B1 chain 3

- Kd [1]: 500 nM
- Kd [2]: 1.8 nM
- Kd [3]: 0.4 nM
- Kd [4]: 310 nM
- Kd [5]: 3200 nM
- Kd [6]: 0.1 nM
B10: H240-Kn208/H240-Hl076/L73-k0 (antibody)
chain 1: B1 chain 1 with S233D
chain 2: B1 chain 2
chain 3: B1 chain 3

- Kd [1]: 25 nM
- Kd [2]: 3.5 nM
- Kd [3]: 0.5 nM
- Kd [4]: 34 nM
- Kd [5]: 160 nM
- Kd [6]: 0.15 nM
B11: H240-Kn220/H240-Hl068/L73-k0 (antibody)
chain 1: B1 chain 1 with S233M, Q234Y, E269D, A326D
chain 2: B1 chain 2 with M329K
chain 3: B1 chain 3

- Kd [1]: 29 nM
- Kd [2]: 2.7 nM
- Kd [3]: 0.47 nM
- Kd [4]: 44 nM
- Kd [5]: 220 nM
- Kd [6]: 0.18 nM
B12: H240-Kn221/H240-Hl068/L73-k0 (antibody)
chain 1: B1 chain 1 with S233T, Q234Y, E269D, A326D
chain 2: B1 chain 2 with M329K
chain 3: B1 chain 3

- Kd [1]: 23 nM
- Kd [2]: 3.4 nM
- Kd [3]: 0.46 nM
- Kd [4]: 32 nM
- Kd [5]: 160 nM
- Kd [6]: 0.17 nM
B13: H240-Kn216/H240-Hl068/L73-k0 (antibody)
chain 1: B1 chain 1 with S233V, Q234Y, E269D, A326D
chain 2: B1 chain 2 with M329K
chain 3: B1 chain 3

- Kd [1]: 37 nM
- Kd [2]: 3.5 nM
- Kd [3]: 0.5 nM
- Kd [4]: 33 nM
- Kd [5]: 220 nM
- Kd [6]: 0.14 nM
B14: H240-Kn218/H240-Hl068/L73-k0 (antibody)
chain 1: B1 chain 1 with S233Q, Q234Y, E269D, A326D
chain 2: B1 chain 2 with M329K
chain 3: B1 chain 3

- Kd [1]: 640 nM
- Kd [2]: 14 nM
- Kd [3]: 7.4 nM
- Kd [4]: 760 nM
- Kd [5]: 1300 nM
- Kd [6]: 0.038 nM
B15: H240-Kn204/H240-Hl211/L73-k0 (antibody)
chain 1: B1 chain 1 with S233Y, Q234L, W235G, M238S, D267H, E269D, K289Y, Y295W, A297S
chain 2: B1 chain 2 with S238D, E269D, D325K, E333V
chain 3: B1 chain 3

- Kd [1]: 28 nM
- Kd [2]: 2.4 nM
- Kd [3]: 0.38 nM
- Kd [4]: 76 nM
- Kd [5]: 120 nM
- Kd [6]: 0.17 nM
B16: H240-Kn217/H240-Hl068/L73-k0 (antibody)
chain 1: B1 chain 1 with S233D, Q234Y, E269D, A326D
chain 2: B1 chain 2 with M329K
chain 3: B1 chain 3
